Results: article PMC4742562, “Structure and Interactions of a Dimeric Variant of sHIP, a Novel Virulence Determinant of Streptococcus pyogenes” (Frontiers in Microbiology, 2016)
Entries after “also recorded” stand apart in the source; their conditions may differ.

How the values were obtained:
[1] = test system: histidine-rich glycoprotein (HRG); test: Antimicrobial assay: inhibition of the bactericidal activity of HRG against S. pyogenes AP1; format: cell-based; conditions: recombinant His-tagged HRG 0.45 μM, S. pyogenes AP1 2 × 10^6 cfu/ml, 10 mM MES, pH 5.5, 5 mM glucose, various sHIP concentrations, 40 min, 37°C, cfu counts, at least three repeats, mean ± SD (values only in Figure 3)
Protocol: The S. pyogenes strain AP1 (40/58), was from the World Health Organization Collaborating Centre for Reference and Research on Streptococci, Prague, Czech Republic. The bacteria were cultivated in THY (Todd-Hewitt broth (Difco) supplemented with 0.2% yeast extract (Oxoid) at 37°C and 5% CO2 until reaching mid-log phase (OD 620 nm approximately 0.4). The bacterial cells were washed and resuspended in 10 mM Tris-HCl, pH 7.5, containing 5 mM glucose, to a concentration of 2 × 10^9 cfu (colony forming unit)/ml. Subsequently, the bacteria were diluted to a concentration of 2 × 10^6 cfu/ml in 10 mM MES buffer, pH 5.5, containing 5 mM glucose. Fifty microliters of the bacterial solution was incubated with recombinant His-tagged HRG (Creative Biomart) at a concentration of 0.45 μM together with various concentrations of protein sHIPwt or protein sHIPqp for 40 min at 37°C. Serial dilutions of the incubation mixtures were plated on TH agar, plates were incubated over night at 37°C and the number of cfu's were determined.
Experiments were repeated at least three times and mean values ± SD are shown.

[2] = Analytical ultracentrifugation, sedimentation velocity (oligomeric state in solution); format: physicochemical; conditions: 20°C, 50000 rpm, Beckman XL-I, 20 mM MES, pH 5.5, SEDFIT c(S)
Protocol: Sedimentation velocity experiments were performed at 20°C and 50000 rpm using a Beckman XL-I instrument. Samples containing either sHIPwt or sHIPqp were in 20 mM MES buffer (2-(N-morpholino) ethanesulfonic acid), pH 5.5. The data were analyzed with SEDFIT using a continuous c (S) distribution (Schuck, [2000]). HYDROPRO (Ortega et al., [2011]) was used to calculate the theoretical sedimentation coefficient using the PDB IDs 4MER (sHIPwt) and 4PZ1 (sHIPqp), respectively.
Figure 2 Sedimentation velocity experiments for protein sHIP. The dotted lines indicate the theoretical sedimentation coefficient for a tetramer and a dimer respectively calculated using HYDROPRO and the structural coordinates for protein sHIPwt (PDB ID: 4MER) and protein sHIPqp (PDB ID: 4PZ1). The wild-type sHIPwt is shown in black, and the sHIPqp mutant in red respectively.

[3] = test system: histidine-rich glycoprotein (HRG); test: Interaction of the sHIP mutant with intact HRG and histidine-rich repeats; format: binding; conditions: stated in abstract; no separate data shown
sHIP = conditions: previous studies; ref Wisniewska et al., 2014; cited from earlier work
Excerpt: In a recent study, we quantitatively analyzed and compared S. pyogenes proteins in the growth medium of a strain that is virulent to mice (AP1), with a non-virulent strain (SF370).

S. pyogenes = conditions: ref Shannon et al., 2010; cited from earlier work
[4] = ref Rydengård et al., 2007; cited from earlier work

B1: sHIPqp (protein)
chain: SMKQDQLIVEKMEQTYEAFSPKLANLIEALDAFKEHYEEYATLRNFYSSDEWFRLANQPWDDIPSGVLSEDLLFDMIGDHNQLAADIADLAPIMAKHM
modifications: left off: His-tag, N-terminal, cleaved
For B1, the “inhibition of the bactericidal activity of HRG” value [1] was “inhibits the bactericidal activity of HRG to the same or even higher extent that wildtype sHIP; also recorded: inhibits the bactericidal activity of HRG more efficiently than protein sHIP wildtype; also recorded: maintain its full inhibitory capacity of HRG in antimicrobial assays”, the “inhibition of the bactericidal activity of HRG” value ([1]; listed as sHIP mutant) was “inhibits their antibacterial activity to the same or even higher extent as compared to the wild type protein sHIP” and the “oligomeric state in solution” value [2] was “dimers in solution”. For the same molecule, the “oligomeric state in solution” value ([2]; listed as sHIP mutant) was “only as dimers in solution” and the “interaction with intact HRG and the histidine-rich repeats in HRG” value [3] was “interacts with intact histidine-rich glycoprotein (HRG) and the histidine-rich repeats in HRG”.

B2: HRG: abundant plasma glycoprotein of approximately 60 kDa; recombinant His-tagged HRG (protein)
chain: VSPTDCSAVEPEAEKALDLINKRRRDGYLFQLLRIADAHLDRVENTTVYYLVLDVQESDCSVLSRKYWNDCEPPDSRRPSEIVIGQCKVIATRHSHESQDLRVIDFNCTTSSVSSALANTKDSPVLIDFFEDTERYRKQANKALEKYKEENDDFASFRVDRIERVARVRGGEGTGYFVDFSVRNCPRHHFPRHPNVFGFCRADLFYDVEALDLESPKNLVINCEVFDPQEHENINGVPPHLGHPFHWGGHERSSTTKPPFKPHGSRDHHHPHKPHEHGPPPPPDERDHSHGPPLPQGPPPLLPMSCSSCQHATFGTNGAQRHSHNNNSSDLHPHKHHSHEQHPHGHHPHAHHPHEHDTHRQHPHGHHPHGHHPHGHHPHGHHPHGHHPHCHDFQDYGPCDPPPHNQGHCCHGHGPPPGHLRRRGPGKGPRPFHCRQIGSVYRLPPLRKGEVLPLPEANFPSFPLPHHKHPLKPDNQPFPQSVSESCPGKFKSGFPQVSMFFTHTFPK
modifications: left off: His-tag, end not stated, kept
notes: abundant plasma glycoprotein of approximately 60 kDa; recombinant His-tagged HRG
For B2, the “affinity for sHIP (in words)” value (sHIP) is given as “nanomolar to micromolar affinity; also recorded: high affinity”, the “antibacterial activity against S. pyogenes” value (S. pyogenes) is given as “antibacterial activity including activity against S. pyogenes” and the antimicrobial potency [4] is given as “broad antimicrobial potency”.
